test: yeast display, Sf9 membrane polyspecificity reagent, FACS + sequencing; frameworks hold sequencing errors
Procedure, shortened: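 Nanobodies from a synthetic yeast display library (Saccharomyces cerevisiae BJ5465), induced 36–48 hours with galactose, were stained 1 hour at 4 °C with 10% biotinylated, detergent-solubilized Sf9 membrane reagent, enriched on streptavidin microbeads, then FACS-sorted. Anti-HA (expression) and streptavidin (reagent binding) fluorescence set low and high (top ~1%) gates. Polyreactivity labels come from the gate of origin. Genes were colony-PCR amplified, MiSeq 2 × 250 sequenced and filtered by CDR length.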

| Sequence | polyreactivity (PSR sort gate) |
| --- | --- |
| QVQLVESGGGLVQAGGSLRLSCAASRSTFVRNAMGWYREAPGKESELVAASSNVGSTYYADSVKGRFTISRDTAKNTVYFQMNILKPEDTAVYYCTKQLWYHKFNYWGQGTQVTVSA | low polyreactivity |
| QVQLVESGGGLVQAGGSLRLSCAASGRTIYSYAMVLNTQAPGKERELVAAISRRGGSTYYADSVKGRFTISRDNAKNTVYLQLNSLIPEDTAVYYCAKRYTPLPYKGIWYYYWGQGTQVTVSS | high polyreactivity |
| QVQLVESGGGLVQAGGSLRLSCAASGSTFWEYVMGWYRQAPGKERELVAAISDSGGSTYYADSVKGRFTISRDNAKNTVYLQMNSLKPEDTAVYYCNADWSWYNYYDFDYWGQGTQVTVSS | low polyreactivity |
| QVQLVESGGGLVQAGGSLRLSCAASGSIFPYNAMGWYRQAPGKERELVATISSGGSTNYADSVKGRFTISRDNAKNTVYLQMNSLKPEDTAVYYCATDDFWNVKFYAYYPEFDYWGQGTQVTVSS | low polyreactivity |
| QVQLVESGGGLVQAGGSLRLSCAASGSTFKNNAMGWYRQEPGKEREFVASISKRGGSTYYADSVKGRFTISRDNAKNTVYLQMNSLKPEDTAVDYCAKTYWSYGWSHGDYGEFDYWGQGTQVTVSS | high polyreactivity |
| QVQLVESGGGLVQAGGSLRLSCAASGSIFVSNVMGWYRQSPGKERELVAAISSSGGRTNYADSVKGRFTISRDNAKNTVYLQMNSLKPEDTAVYYCAKAGRYANLPYGYWGQGTQVTVSS | high polyreactivity |
| QVQLVESGGGLVQAGGSLRLSCAASGRTFHRYTMGWYRPAPGKERELVAAISRNGGSTYYADSVKGRFTISRDNAKNTVYLQMNSLKPEDTAVYYCNKPYWSDDYYSWGQGTQVTVSS | high polyreactivity |
| QVQLVESGGGLVQAGGSLRLSCAASGSILYPNAMGWYRQAPGKERELVAAISSSGGRTYYADSVKGRFTISRDNAKNTVYLQMNSLKPEDTAVYYCATVSIAGPRYDYWGQGTQVTVSS | high polyreactivity |
| QVQLVESGGGLVQAGGSLRLSCAASGRIFLGYAMGWYRQAPGKERELVAAISRSGGRTYYADSVKGRFTISRDNAKNTVYLQMNRLKPEDTAVYYCAARALYPLGYDYWGQGTQVTVSS | high polyreactivity |
| QVQLVESGGGLVQAGGSLRLSCAASGSIFTFNAMGWYRQAPGKERELVAAISTGGNTYYADSVKGRFTISRDNAKNTVYLQINSLKPEDTAVFYCAAVRRTDGDGKYYYWGQGTQVTVSS | high polyreactivity |
| QVQLVESGGGLVQAGGSLRLSCSASGFIFVDYAMGWYRQSPGKERELVAAISRSGGSTYYADSVKGRFTISRDNAKNTVYLQMNSLKPEDTAVYYCAAKYPFYAKNGYWGQGTQVTVSS | high polyreactivity |
| QVQLVESGGGLVQAGGSLRLSCAASGITFSRNAMGWYRQAPGTDRELGAVISTRGGRTYYADSVKGRFTISRDNAKNTVYLQMNSLKPEDTAVYYCAASPDPYWRRMDYWGQGTQVTVSS | high polyreactivity |
| QVQLVESGAGLVKAGGSLRLSCAASGRTLTGNDMGWYRQAPGKERELVAAITARGGSTYYADSVKGRFTISRDNAKNTVYLQMNSLKPEDTAVYYGATLPVRIRRDYWGQGTQVTVSS | high polyreactivity |
| QVQLVESAGGLVQAGGSLRLSCAASGSTFVANAMGWYRQAPGKERELVARISRSTGSTYYADSVKGRFTISRDNAKNTVYLQMNSLKPEDTAVYYCAAPSVYYPQFDYWGQGTQVTVSS | high polyreactivity |
| KVQLVESGGGLVQAGGRLRLSCAASGGTFVINVMGWYRQAPGKERELVAAISWNGDSTYYADSVKGRFTISRDNAKNTVYLQMNSLKPEDTAVYYCATDTWRVYYAYWQFGVWELGYWGQGTQVTVSS | low polyreactivity |
| QVQLVDSGGGLVQAGGSLRLSCAASGSIFAGYTMGGYRQAPGKEREFVAAISSSGGSTYYADSVKGRFTISRDNAKNTVYLQMNSLKPEDTAVSYCAVRGRISSVSRYGYWGQGTQVTVSS | high polyreactivity |
| QVHLVESGGGLVQAGGSLRLSCAASGRIFAKNAMGWYRQAPGKERELVAAINHSGGSTYYADSVKGRFTISRDYAKNTVYLQMNSLNPEDTAVYYCDARGLTTRSPFYYWGQGTQVTVSS | high polyreactivity |
| QVQLVESGGGLVQAGGSLRLSCAASGFTFHYYDMGWYRQAPGKERELVATISQSGTSTYYADSVKGRFTISRDNAKNSVYLQMHSLKPEDTAVYYCAADYIGYWYGYYWYEYWGQGTQVTVSS | low polyreactivity |
| QVQLVESGGGLVQAGGSLRLSCAASGSTFFGNAMGWYRQAPGKERELVAAITSGGSTNYADSVKGRFTISRDNAKNTVYLQMNSLKPEDTAVYYCAKPSRWGWTGFYAYDYWGQGTQVTVSS | low polyreactivity |
| QVQLVESGGGLVQAGGSLRLSCAASGYTFRFNAMGWYRQAPGKEREFVAAIDFGGAGTYYADSVKGRFTISRDNAKNNVYLQMHSLKPEDTAVYYCNARDGVTSEFDYWGQGTQVTVSS | low polyreactivity |
| QVQLVESGGGLVQAGGSLRLSCAASGRIFYNNAMGWYRQAPGKERELVATISRGGSTNYADSVKGRFTISRDNAKNTVYLQMNSLKPEDTAVYYCAAVTTRSYGYEYWGQGTQVTVSS | low polyreactivity |
| QVQLVESGGGLDQAGGSLRLSCAASGFIFYDYDMGWYRQAPGKERELVAAISDGGSTNYADSVKGRFTISRDNAKNTVYFQRNSLKPEDTAVYYCAKDGFVYYDYFQYIEYDYWGQGTQVTVSS | low polyreactivity |
| QVHLVESVGGLVQAGGSLRLSCAASGYIFGGYAMAWYRQAPGKERELVAAISRSGGSTYYADSVKGRFTISRDNAKNTVYLQINSLKPVDTAVYYCAVRGYTLPYGYWGQGTQVTVSS | high polyreactivity |
| QVQLLESGGGLVQAGGSLRLSCAASGFTFLSNVMGRYRQAPGKERELVAGINFSGDGTYYADSVKGRFTISRDNAKNTVYLQMNSLKPEDTAVYYCAGDVEYYRDVPQQVYVSDDYWGQGTQVTVSS | low polyreactivity |
| QVQLVESGGGVVQAGGSLRLSCAAYRSIFLFKAMGWYRQATGKERELVAAINRDDSTYYADSVKGRFTISRDNAKNTVYLQMNSLKPEDTAVYYCAAPVLHASYGYGYWGQGTQVTVSS | low polyreactivity |
| QVQLVESGGGLVQAGGSLSLSCAASGRTLYQYAMGWSRQAPGKERELVAAITTSGGSTYYADSVKGRFTISRDNAKNTVYLQMNSLKPEDTAVYYCAAPYTGYRERGYYKSDYWGQGTQVTESS | low polyreactivity |
| QVQLVESVGGLVQAGGSLRLSCAAYGRTFAPNAMLWYRQAPGKESELVAAISWSGTSTYYADSVKGRFTISRDNSKNTVYLQMYSLKPEDTAFYDCAADMEGRVGSPWTYDYWGQGTQVTVSS | low polyreactivity |
| QVQLVESGGGLVQAGGSLRLICAASGSIFGDNAMGWYRQAPGKERELVARISSGGNTYYADSVKGRFTISRDNAKNTVYLQMNSLKPEDTAVYYCNVYRYDGDYWGQGTQVTVSS | high polyreactivity |
| QVQLQESGGGLVQAGGSLRLSCAASGSIFVSVTMGWYRQAPGKERELVASIGRGSTTNHADSVKGRFTICRDNAKNIVYLLMNSLKPEDTAVYYCAALESYGKYHGYWGQGTQVTVSS | low polyreactivity |
| QVQLVESGGGFVQAGGSLRLICADSGRIFGRYAMGWYRQAPGKERELVAVISARGARTYYADSVKGRFTLSRDNAKNTDYLQMNSLKPEATEVYYCAVDQYATDDYWGQGTQVTVSS | high polyreactivity |

Source: the nanobody polyreactivity screen of Harvey et al. (2022)
